# Results taken from the RNAGym collection of RNA variant scans (doi:10.1021/acssynbio.7b00057).
# B1: Pistol ribozyme (parent)
# chain: GGGUCGUUGUUCCAUAAUCGCGUGGAUAUGGCACGCAAGUUUCUACCGGGCACCGUAAAUGUCCGACUGGAGCCGUUCGGGCGGCUAUAAACAGACCUCAGGCCCGAAGCGUGGCGGCACCUGCCGCCGGUGGUAAAAAAGAUCGGAAGAGCACACGUCU
# Variants of: B1
# Assay: aptazyme ON/OFF ratio, guanine; higher = stronger switching; co-transcriptional cleavage with and without guanine
row,Variant,aptazyme ON/OFF ratio
1,GGGUCGUCGGUAAAUAAUCGCGUGGAUAUGGCACGCAAGUUUCUACCGGGCACCGUAAAUGUCCGACUGGAGCCGUUCGGGCGGCUAUAAACAGACCUCAGGCCCGAAGCGUGGCGGCACCUGCCGCCGGUGGUAAAAAAGAUCGGAAGAGCACACGUCU,1.11
2,GGGUCGUCGGUAUAUAAUCGCGUGGAUAUGGCACGCAAGUUUCUACCGGGCACCGUAAAUGUCCGACUGGAGCCGUUCGGGCGGCUAUAAACAGACCUCAGGCCCGAAGCGUGGCGGCACCUGCCGCCGGUGGUAAAAAAGAUCGGAAGAGCACACGUCU,1.11
3,GGGUCGUCGGUAGAUAAUCGCGUGGAUAUGGCACGCAAGUUUCUACCGGGCACCGUAAAUGUCCGACUGGAGCCGUUCGGGCGGCUAUAAACAGACCUCAGGCCCGAAGCGUGGCGGCACCUGCCGCCGGUGGUAAAAAAGAUCGGAAGAGCACACGUCU,1.11
4,GGGUCGUCGCGCGAUAAUCGCGUGGAUAUGGCACGCAAGUUUCUACCGGGCACCGUAAAUGUCCGACUGGAGCCGUUCGGGCGGCUAUAAACAGACCUCAGGCCCGAAGCGUGGCGGCACCUGCCGCCGGUGGUAAAAAAGAUCGGAAGAGCACACGUCU,1.14
5,GGGUCGUCGCGCAAUAAUCGCGUGGAUAUGGCACGCAAGUUUCUACCGGGCACCGUAAAUGUCCGACUGGAGCCGUUCGGGCGGCUAUAAACAGACCUCAGGCCCGAAGCGUGGCGGCACCUGCCGCCGGUGGUAAAAAAGAUCGGAAGAGCACACGUCU,1.26
6,GGGUCGUCGCGCUAUAAUCGCGUGGAUAUGGCACGCAAGUUUCUACCGGGCACCGUAAAUGUCCGACUGGAGCCGUUCGGGCGGCUAUAAACAGACCUCAGGCCCGAAGCGUGGCGGCACCUGCCGCCGGUGGUAAAAAAGAUCGGAAGAGCACACGUCU,1.28
7,GGGUCGUCGGUGAAUAAUCGCGUGGAUAUGGCACGCAAGUUUCUACCGGGCACCGUAAAUGUCCGACUGGAGCCGUUCGGGCGGCUAUAAACAGACCUCAGGCCCGAAGCGUGGCGGCACCUGCCGCCGGUGGUAAAAAAGAUCGGAAGAGCACACGUCU,1.09
8,GGGUCGUCGGUGGAUAAUCGCGUGGAUAUGGCACGCAAGUUUCUACCGGGCACCGUAAAUGUCCGACUGGAGCCGUUCGGGCGGCUAUAAACAGACCUCAGGCCCGAAGCGUGGCGGCACCUGCCGCCGGUGGUAAAAAAGAUCGGAAGAGCACACGUCU,1.12
9,GGGUCGUCGCGUCAUAAUCGCGUGGAUAUGGCACGCAAGUUUCUACCGGGCACCGUAAAUGUCCGACUGGAGCCGUUCGGGCGGCUAUAAACAGACCUCAGGCCCGAAGCGUGGCGGCACCUGCCGCCGGUGGUAAAAAAGAUCGGAAGAGCACACGUCU,1.39
10,GGGUCGUCGGUACAUAAUCGCGUGGAUAUGGCACGCAAGUUUCUACCGGGCACCGUAAAUGUCCGACUGGAGCCGUUCGGGCGGCUAUAAACAGACCUCAGGCCCGAAGCGUGGCGGCACCUGCCGCCGGUGGUAAAAAAGAUCGGAAGAGCACACGUCU,1.12
11,GGGUCGUCGGUGCAUAAUCGCGUGGAUAUGGCACGCAAGUUUCUACCGGGCACCGUAAAUGUCCGACUGGAGCCGUUCGGGCGGCUAUAAACAGACCUCAGGCCCGAAGCGUGGCGGCACCUGCCGCCGGUGGUAAAAAAGAUCGGAAGAGCACACGUCU,1.07
12,GGGUCGUCGGUCCAUAAUCGCGUGGAUAUGGCACGCAAGUUUCUACCGGGCACCGUAAAUGUCCGACUGGAGCCGUUCGGGCGGCUAUAAACAGACCUCAGGCCCGAAGCGUGGCGGCACCUGCCGCCGGUGGUAAAAAAGAUCGGAAGAGCACACGUCU,1.76
13,GGGUCGUCGCGUGAUAAUCGCGUGGAUAUGGCACGCAAGUUUCUACCGGGCACCGUAAAUGUCCGACUGGAGCCGUUCGGGCGGCUAUAAACAGACCUCAGGCCCGAAGCGUGGCGGCACCUGCCGCCGGUGGUAAAAAAGAUCGGAAGAGCACACGUCU,1.28
14,GGGUCGUCGCGUAAUAAUCGCGUGGAUAUGGCACGCAAGUUUCUACCGGGCACCGUAAAUGUCCGACUGGAGCCGUUCGGGCGGCUAUAAACAGACCUCAGGCCCGAAGCGUGGCGGCACCUGCCGCCGGUGGUAAAAAAGAUCGGAAGAGCACACGUCU,1.26
15,GGGUCGUCGCGUUAUAAUCGCGUGGAUAUGGCACGCAAGUUUCUACCGGGCACCGUAAAUGUCCGACUGGAGCCGUUCGGGCGGCUAUAAACAGACCUCAGGCCCGAAGCGUGGCGGCACCUGCCGCCGGUGGUAAAAAAGAUCGGAAGAGCACACGUCU,1.46
16,GGGUCGUCGCGGGAUAAUCGCGUGGAUAUGGCACGCAAGUUUCUACCGGGCACCGUAAAUGUCCGACUGGAGCCGUUCGGGCGGCUAUAAACAGACCUCAGGCCCGAAGCGUGGCGGCACCUGCCGCCGGUGGUAAAAAAGAUCGGAAGAGCACACGUCU,1.15
17,GGGUCGUCGCGGUAUAAUCGCGUGGAUAUGGCACGCAAGUUUCUACCGGGCACCGUAAAUGUCCGACUGGAGCCGUUCGGGCGGCUAUAAACAGACCUCAGGCCCGAAGCGUGGCGGCACCUGCCGCCGGUGGUAAAAAAGAUCGGAAGAGCACACGUCU,1.08
18,GGGUCGUCGCGGAAUAAUCGCGUGGAUAUGGCACGCAAGUUUCUACCGGGCACCGUAAAUGUCCGACUGGAGCCGUUCGGGCGGCUAUAAACAGACCUCAGGCCCGAAGCGUGGCGGCACCUGCCGCCGGUGGUAAAAAAGAUCGGAAGAGCACACGUCU,1.25
